B1: Kv1.3-CFP (natural protein, rat, UniProt P15384 1-525, looked up)
chain: MTVVPGDHLLEPEAAGGGGGDPPQGGCVSGGGCDRYEPLPPALPAAGEQDCCGERVVINISGLRFETQLKTLCQFPETLLGDPKRRMRYFDPLRNEYFFDRNRPSFDAILYYYQSGGRIRRPVNVPIDIFSEEIRFYQLGEEAMEKFREDEGFLREEERPLPRRDFQRQVWLLFEYPESSGPARGIAIVSVLVILISIVIFCLETLPEFRDEKDYPASPSQDVFEAANNSTSGASSGASSFSDPFFVVETLCIIWFSFELLVRFFACPSKATFSRNIMNLIDIVAIIPYFITLGTELAERQGNGQQAMSLAILRVIRLVRVFRIFKLSRHSKGLQILGQTLKASMRELGLLIFFLFIGVILFSSAVYFAEADDPSSGFNSIPDAFWWAVVTMTTVGYGDMHPVTIGGKIVGSLCAIAGVLTIALPVPVIVSNFNYFYHRETEGEEQAQYMHVGSCQHLSSSAEELRKARSNSTLSKSEYMVIEEGGMNHSAFPQTPFKTGNSTATCTTNNNPNSCVNIKKIFTDV
notes: Kv1.3, rat (rKv1.3), subcloned from pRcCMV into pECFP-C1; pECFP-C1 is surmised to put CFP at the N-terminus of the insert; source: HEK-293, transfected; in lysate (cross-linking) or in fixed cells (FRET)
B2: Kv1.3-loopBAD-GFP (natural protein, rat, UniProt P15384 1-525, looked up)
chain: B1 chain
modifications: biotin on the loopBAD tag (BirA co-expressed)
notes: Kv1.3, rat (rKv1.3); GFP-Kv1.3 with a loopBAD tag introduced at an NruI restriction site; source: HEK-293, electroporated with BirA, on the cell surface
B3: KCNE4-loopBAD-GFP (natural protein, mouse, UniProt Q9WTW3 1-170, looked up)
chain: MLRMEPLNSTYPSAAASSSPLESHVPSNSSGNGNEYFYILVVMSFYGVFLIGIMLGYMKSKRREKKSSLLLLYKDEERLWGEAMKPLPMMSGLRSGQVPMMLNMLQESVAPALSCTLCSMEGDSVSSESSSPDVHLPIQEEGADDELEETSETPLNDSSEGSSENIHQNS
modifications: biotin on the loopBAD tag (BirA co-expressed)
notes: KCNE4, mouse (mKCNE4), UniProtKB Q9WTW3; KCNE4-GFP with a loopBAD tag introduced at an NruI restriction site; source: HEK-293, electroporated with BirA, on the cell surface

Experiments:
[1] = target: the molecule itself; assay: cross-linking; HEK-293 lysates (50 mM boric acid, 100 mM K acetate, 2 mM MgCl2, 1 mM EGTA, 1% Triton X-100, pH 8.5) with or without 5 mM DMP for 1 h; 7% SDS-PAGE, immunoblot against CFP
[2] = target: the molecule itself; assay: counting of GFP bleaching steps of single spots (TIRF microscopy); loopBAD-GFP proteins biotinylated by BirA on HEK-293 cells, immobilised through neutravidin on biotinylated glass; bleaching steps counted per spot

| Protein | stoichiometry N [1] | stoichiometry N [2] |
| --- | --- | --- |
| B1 | 4 | – |
| B2 | – | 4 |
| B3 | – | 2 |
